Reference: publication PMC3814156 (Molecular Biology of the Cell, 2013)

Molecular target: ezrin FERM domain (residues 1–298), untagged (UniProt P15311 1-298)
Test: pull-down

Sequence of ezrin FERM domain (residues 1–298), untagged (P15311 1-298): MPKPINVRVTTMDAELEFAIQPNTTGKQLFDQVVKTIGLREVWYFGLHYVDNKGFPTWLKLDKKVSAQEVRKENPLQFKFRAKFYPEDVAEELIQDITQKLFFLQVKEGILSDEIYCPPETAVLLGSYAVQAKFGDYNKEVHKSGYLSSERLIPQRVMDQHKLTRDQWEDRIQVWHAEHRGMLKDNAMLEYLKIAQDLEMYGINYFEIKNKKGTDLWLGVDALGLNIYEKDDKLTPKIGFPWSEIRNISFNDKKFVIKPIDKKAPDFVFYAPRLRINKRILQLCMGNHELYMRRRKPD

| half-life of dissociation from ezrin FERM beads [min] | Binder |
| --- | --- |
| ~16 | SUMO-tagged E3KARP (natural protein, human, UniProt Q15599 1-337, looked up) MAAPEPLRPRLCRLVRGEQGYGFHLHGEKGRRGQFIRRVEPGSPAEAAALRAGDRLVEVNGVNVEGETHHQVVQRIKAVEGQTRLLVVDQETDEELRRRQLTCTEEMAQRGLPPAHDPWEPKPDWAHTGSHSSEAGKKDVSGPLRELRPRLCHLRKGPQGYGFNLHSDKSRPGQYIRSVDPGSPAARSGLRAQDRLIEVNGQNVEGLRHAEVVASIKAREDEARLLVVDPETDEHFKRLRVTPTEEHVEGPLPSPVTNGTSPAQLNGGSACSSRSDLPGSDKDTEDGSAWKQDPFQESGLHLSPTAAEAKEKARAMRVNKRAPQMDWNRKREIFSNF |
| ~10 | SUMO-tagged EBP50 (natural protein, human, UniProt O14745 1-358, looked up) MSADAAAGAPLPRLCCLEKGPNGYGFHLHGEKGKLGQYIRLVEPGSPAEKAGLLAGDRLVEVNGENVEKETHQQVVSRIRAALNAVRLLVVDPETDEQLQKLGVQVREELLRAQEAPGQAEPPAAAEVQGAGNENEPREADKSHPEQRELRPRLCTMKKGPSGYGFNLHSDKSKPGQFIRSVDPDSPAEASGLRAQDRIVEVNGVCMEGKQHGDVVSAIRAGGDETKLLVVDRETDEFFKKCRVIPSQEHLNGPLPVPFTNGEIQKENSREALAEAALESPRPALVRSASSDTSEELNSQDSPPKQDSTAPSSTSSSDPILDFNISLAMAKERAHQKRSSKRAPQMDWSKKNELFSNL |
